Data set [1] has as its system T1, 33-mer toxic gluten peptide from alpha-gliadin.
T1 sequence: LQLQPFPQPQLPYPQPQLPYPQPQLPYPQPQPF

For data set [2], the target named is 33-mer toxic gluten peptide from alpha-gliadin. Put plainly: cell-based or functional assay.
Data set [3] addresses T2, 33-mer toxic gluten peptide from alpha-gliadin.
T2 chain: T1 sequence

Like-named read-outs stand apart in the source and are kept apart here.

Regarding pepsin, the Relative Peak Area (%) of undigested 33-mer by LC-MS after 0.5 h at 100:1 substrate:enzyme, percent of the control without enzyme in data set [1] stood at 93.2%.
In data set [2], “high molecular weight fraction (>approx. 10 kDa) of Nepenthes extract (fluid)” yielded a Relative Peak Area (%) of undigested 33-mer by LC-MS after 0.5 h at 100:1 substrate:enzyme, percent of the control without enzyme of 0%.

B1: recombinant nepenthesin I (from N. gracilis, acid-activated) (protein)
chain: APTHSTSRTALNHRHEAKVTGFQIMLEHVDSGKNLTKFQLLERAIERGSRRLQRLEAMLNGPSGVETSVYAGDGEYLMNLSIGTPAQPFSAIMDTGSDLIWTQCQPCTQCFNQSTPIFNPQGSSSFSTLPCSSQLCQALSSPTCSNNFCQYTYGYGDGSETQGSMGTETLTFGSVSIPNITFGCGENNQGFGQGNGAGLVGMGRGPLSLPSQLDVTKFSYCMTPIGSSTPSNLLLGSLANSVTAGSPNTTLIQSSQIPTFYYITLNGLSVGSTRLPIDPSAFALNSNNGTGGIIIDSGTTLTYFVNNAYQSVRQEFISQINLPVVNGSSSGFDLCFQTPSDPSNLQIPTFVMHFDGGDLELPSENYFISPSNGLICLAMGSSSQGMSIFGNIQQ
Consider B1, for which the Relative Peak Area (%) of undigested 33-mer by LC-MS after 0.5 h at 100:1 substrate:enzyme, percent of the control without enzyme in data set [3] amounted to 78.7%.

B2: recombinant nepenthesin II (from N. gracilis, acid-activated) (protein)
chain: QSSSGIETPVYAGDGEYLMNVAIGTPDSSFSAIMDTGSDLIWTQCEPCTQCFSQPTPIFNPQDSSSFSTLPCESQYCQDLPSETCNNNECQYTYGYGDGSTTQGYMATETFTFETSSVPNIAFGCGEDNQGFGQGNGAGLIGMGWGPLSLPSQLGVGQFSYCMTSYGSSSPSTLALGSAASGVPEGSPSTTLIHSSLNPTYYYITLQGITVGGDNLGIPSSTFQLQDDGTGGMIIDSGTTLTYLPQDAYNAVAQAFTDQINLPTVDESSSGLSTCFQQPSDGSTVQVPEISMQFDGGVLNLGEQNILISPAEGVICLAMGSSSQLGISIFGNIQQQETQVLYDLQNLAVSFVPTQCGAS
B2 returned a Relative Peak Area (%) of undigested 33-mer by LC-MS after 0.5 h at 100:1 substrate:enzyme, percent of the control without enzyme in data set [3] of 34%.
